Reference: the supplement of paper PMC10126150
± gives the standard deviation of the averaged measurements.

Tested on: ATP
Test: switch fluorescence ratio, 500 uM ATP over buffer (Cy3 cluster intensity, sum of 5 cycles each) (fold (ratio)); higher = stronger signal-on switching upon ATP binding; sequences stand for … in TCGTCGGCAGCGTCAGATGTGTATAAGAGACAGTTTTTTTTTTTTTTTTTTTTTTTTT…TC
Conditions: aptamer strand: ATP DNA aptamer (quencher-CACCTGGGGGAGTATTGCGGAGGAAGG + anchor), 100 nM annealed; ATP concentration: 500 uM
In short: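 Values give the fluorescence ratio for each switch-domain sequence, averaged from per-cluster ratios of summed target-cycle to summed buffer-cycle Cy3 intensity. The Cy3-labelled switching-strand clusters sat on a modified Illumina MiSeq flow-cell, were annealed to 100 nM quencher-labelled ATP aptamer, and were imaged in selection buffer, then after 15 min with 500 uM ATP at 22 °C. Five cycles ran with NaOH stripping and re-annealing between them, and clusters outside 100-1000 RFU were excluded.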
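Note: ATP exposure 15 min at 22 °C before imaging.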

For TCCAGGGGGT, the switch fluorescence ratio was 2.41 ± 0.044.
TCCAGGTAGT showed a switch fluorescence ratio of 1.594 ± 0.012.
In the case of TCCAGGTGTG, the switch fluorescence ratio is reported as 2.77 ± 0.42.
Work on TCCAGTAGGT yielded a switch fluorescence ratio of 1.01 ± 0.0032.
For TCCAGTTAGT, the switch fluorescence ratio was 0.977 ± 0.013.
With TCCATACTGG the switch fluorescence ratio was 1.004 ± 0.0073.
For TCCATAGGGC, the switch fluorescence ratio was 1.002 ± 0.0048.
TCCATATGCT showed a switch fluorescence ratio of 0.9941 ± 0.0093.
TCCATGGGGT showed a switch fluorescence ratio of 0.9836 ± 0.0079.
TCCATTAGAT gave a switch fluorescence ratio of 1.019 ± 0.0066.
With TCCATTGTCC the switch fluorescence ratio was 1.08 ± 0.052.
TCCATTTTAA showed a switch fluorescence ratio of 1.055 ± 0.0017.
In the case of TCCCAGAACG, the switch fluorescence ratio is reported as 1.062 ± 0.0077.
TCCCAGCTGT gave a switch fluorescence ratio of 1.12 ± 0.033.
In the case of TCCCGTATCC, the switch fluorescence ratio is reported as 1.07 ± 0.036.
TCCCTTAGAG showed a switch fluorescence ratio of 1.037 ± 0.0024.
For TCCGAACCTT, the switch fluorescence ratio was 1.88 ± 0.086.
In the case of TCCGAGAGAG, the switch fluorescence ratio is reported as 1.25 ± 0.053.
TCCGCAGATT showed a switch fluorescence ratio of 4.02 ± 0.047.
TCCGGCTATT gave a switch fluorescence ratio of 1.108 ± 0.0087.
With TCCGGGAGTG the switch fluorescence ratio was 1.078 ± 0.0027.
TCCGGGCAGG was tested, and the switch fluorescence ratio was 1.14 ± 0.023.
TCCGGGCTGG was tested, and the switch fluorescence ratio was 1.02 ± 0.013.
With TCCGGGGGAG the switch fluorescence ratio was 1 ± 0.023.
For TCCGGGGGAT, the switch fluorescence ratio was 1.32 ± 0.38.
TCCGGGGGTA showed a switch fluorescence ratio of 1.12 ± 0.12.
For TCCGGGTAGG, the switch fluorescence ratio was 1.036 ± 0.0049.
Sequence TCCGGGTATT has a switch fluorescence ratio of 1.078 ± 0.0025.
With TCCGGTTGCA the switch fluorescence ratio was 2.49 ± 0.12.
For TCCGTGTCTA, the switch fluorescence ratio was 1.07 ± 0.022.
For TCCGTGTGGT, the switch fluorescence ratio was 1.07 ± 0.051.
TCCGTTGGGG gave a switch fluorescence ratio of 1.05 ± 0.15.
For TCCTCAAGTT, the switch fluorescence ratio was 1.23 ± 0.015.
With TCCTCAGGAT the switch fluorescence ratio was 1.02 ± 0.018.
For TCCTCGTCTC, the switch fluorescence ratio was 1.69 ± 0.038.
Work on TCCTGAAAAC yielded a switch fluorescence ratio of 1.1 ± 0.087.
TCCTGAAATT gave a switch fluorescence ratio of 0.987 ± 0.015.
TCCTGAGGAT showed a switch fluorescence ratio of 1 ± 0.058.
In the case of TCCTGCATGG, the switch fluorescence ratio is reported as 1.22 ± 0.037.
With TCCTGGGAT the switch fluorescence ratio was 1.01 ± 0.03.
TCCTGGGTAT was tested, and the switch fluorescence ratio was 1.69 ± 0.98.
For TCCTGGGTTT, the switch fluorescence ratio was 1.27 ± 0.48.
Sequence TCCTGTACTG has a switch fluorescence ratio of 1.04 ± 0.062.
TCCTTAGTTC was tested, and the switch fluorescence ratio was 0.969 ± 0.035.
With TCCTTCTTTA the switch fluorescence ratio was 1.38 ± 0.43.
With TCCTTGGTCG the switch fluorescence ratio was 1.04 ± 0.031.
TCGAAAAGGG was tested, and the switch fluorescence ratio was 0.992 ± 0.015.
Sequence TCGAAACGGG has a switch fluorescence ratio of 1.14 ± 0.24.
TCGAAGAGCG was tested, and the switch fluorescence ratio was 0.976 ± 0.045.
TCGAAGCCAG gave a switch fluorescence ratio of 1.061 ± 0.0045.
With TCGAAGCCTA the switch fluorescence ratio was 1.17 ± 0.02.
In the case of TCGAAGGGTG, the switch fluorescence ratio is reported as 0.999 ± 0.04.
Work on TCGAAGTATC yielded a switch fluorescence ratio of 1.12 ± 0.058.
Work on TCGAATGGAT yielded a switch fluorescence ratio of 0.991 ± 0.011.
In the case of TCGAATGGGG, the switch fluorescence ratio is reported as 0.961 ± 0.014.
Work on TCGACAGTCC yielded a switch fluorescence ratio of 1.037 ± 0.0085.
TCGACGGGTG gave a switch fluorescence ratio of 1.02 ± 0.043.
TCGACTGCGT gave a switch fluorescence ratio of 1.056 ± 0.005.
TCGAGGAAGT was tested, and the switch fluorescence ratio was 0.999 ± 0.062.
Sequence TCGAGGATGT has a switch fluorescence ratio of 0.976 ± 0.019.
For TCGAGGGAAC, the switch fluorescence ratio was 1.03 ± 0.018.
TCGAGGGCGA gave a switch fluorescence ratio of 1.146 ± 0.0097.
TCGAGGGTAG gave a switch fluorescence ratio of 1.02 ± 0.018.
In the case of TCGAGGTCGA, the switch fluorescence ratio is reported as 1.01 ± 0.039.
TCGAGTTG was tested, and the switch fluorescence ratio was 0.9972 ± 0.0093.
TCGATACTTT gave a switch fluorescence ratio of 1.03 ± 0.021.
In the case of TCGATCCTGA, the switch fluorescence ratio is reported as 0.998 ± 0.032.
Sequence TCGATGGACT has a switch fluorescence ratio of 1.03 ± 0.014.
In the case of TCGATGGATG, the switch fluorescence ratio is reported as 1.025 ± 0.0058.
For TCGATGGCAG, the switch fluorescence ratio was 1.059 ± 0.0033.
TCGATGTGTT showed a switch fluorescence ratio of 0.9592 ± 0.0086.
In the case of TCGATGTTGG, the switch fluorescence ratio is reported as 0.984 ± 0.03.
Work on TCGATTGGGG yielded a switch fluorescence ratio of 0.9682 ± 0.0089.
TCGCATCCTT was tested, and the switch fluorescence ratio was 0.989 ± 0.017.
For TCGCATTTTT, the switch fluorescence ratio was 1.11 ± 0.13.
In the case of TCGCCCTCCA, the switch fluorescence ratio is reported as 1.26 ± 0.12.
TCGCCGAAAT showed a switch fluorescence ratio of 1.7 ± 0.35.
TCGCGAATGG was tested, and the switch fluorescence ratio was 1.11 ± 0.02.
With TCGCGGCTAT the switch fluorescence ratio was 1.56 ± 0.61.
In the case of TCGCGTTTGC, the switch fluorescence ratio is reported as 1.06 ± 0.054.
With TCGCTATGCC the switch fluorescence ratio was 0.991 ± 0.13.
Work on TCGCTCACGG yielded a switch fluorescence ratio of 1.03 ± 0.021.
In the case of TCGCTGGTTG, the switch fluorescence ratio is reported as 0.996 ± 0.022.
With TCGCTTGTTG the switch fluorescence ratio was 1.03 ± 0.022.
TCGCTTTT was tested, and the switch fluorescence ratio was 1.02 ± 0.02.
TCGGAAAATA gave a switch fluorescence ratio of 1.01 ± 0.026.
Work on TCGGAAAGGA yielded a switch fluorescence ratio of 0.9814 ± 0.0016.
Sequence TCGGAATGGC has a switch fluorescence ratio of 1.27 ± 0.23.
Work on TCGGACTAGG yielded a switch fluorescence ratio of 1 ± 0.031.
For TCGGAGAATG, the switch fluorescence ratio was 1.003 ± 0.01.
With TCGGAGATTT the switch fluorescence ratio was 0.97302 ± 0.00083.
In the case of TCGGAGGCGG, the switch fluorescence ratio is reported as 1.007 ± 0.0069.
For TCGGAGGGAG, the switch fluorescence ratio was 1.02 ± 0.056.
For TCGGAGTGCG, the switch fluorescence ratio was 1.006 ± 0.0062.
In the case of TCGGAGTGCT, the switch fluorescence ratio is reported as 1.04 ± 0.042.
TCGGAGTGGC showed a switch fluorescence ratio of 1.2 ± 0.19.
TCGGAGTTAG was tested, and the switch fluorescence ratio was 1.04 ± 0.022.
With TCGGATAGAG the switch fluorescence ratio was 0.949 ± 0.058.
For TCGGATCATT, the switch fluorescence ratio was 0.9775 ± 0.0039.
For TCGGATGAGG, the switch fluorescence ratio was 1 ± 0.042.
Sequence TCGGATGCGT has a switch fluorescence ratio of 1.03 ± 0.035.
In the case of TCGGCACATT, the switch fluorescence ratio is reported as 1.46 ± 0.63.
Work on TCGGCATCGG yielded a switch fluorescence ratio of 1 ± 0.021.
Sequence TCGGCCTGCT has a switch fluorescence ratio of 1.01 ± 0.021.
For TCGGCGGCTG, the switch fluorescence ratio was 0.984 ± 0.01.
In the case of TCGGCGGGTC, the switch fluorescence ratio is reported as 0.9973 ± 0.0015.
TCGGCTATGG was tested, and the switch fluorescence ratio was 1.01 ± 0.011.
In the case of TCGGCTGGAA, the switch fluorescence ratio is reported as 1.027 ± 0.0025.
For TCGGCTGGGG, the switch fluorescence ratio was 0.991 ± 0.014.
TCGGCTTGTT showed a switch fluorescence ratio of 1.02 ± 0.02.
With TCGGGAAGAG the switch fluorescence ratio was 0.98832 ± 5e-05.
TCGGGAAGGA gave a switch fluorescence ratio of 1.01 ± 0.031.
TCGGGAGAAT was tested, and the switch fluorescence ratio was 1.01 ± 0.015.
TCGGGAGGCT showed a switch fluorescence ratio of 1 ± 0.028.
With TCGGGAGTGG the switch fluorescence ratio was 0.9905 ± 0.0016.
In the case of TCGGGATACG, the switch fluorescence ratio is reported as 1.14 ± 0.021.
With TCGGGCATAG the switch fluorescence ratio was 1.06 ± 0.046.
In the case of TCGGGCGATG, the switch fluorescence ratio is reported as 0.983 ± 0.036.
TCGGGCGGGG was tested, and the switch fluorescence ratio was 1.036 ± 0.0098.
With TCGGGGCACG the switch fluorescence ratio was 0.993 ± 0.052.
Work on TCGGGGCAGG yielded a switch fluorescence ratio of 0.988 ± 0.013.
TCGGGGCAGT gave a switch fluorescence ratio of 2.01 ± 1.4.
TCGGGGCTCC gave a switch fluorescence ratio of 2.87 ± 2.6.
Sequence TCGGGGGACT has a switch fluorescence ratio of 0.9827 ± 0.0063.
In the case of TCGGGGGAGG, the switch fluorescence ratio is reported as 0.983 ± 0.022.
TCGGGGGCTT gave a switch fluorescence ratio of 0.996 ± 0.015.
For TCGGGGGGCC, the switch fluorescence ratio was 1.02 ± 0.074.
Sequence TCGGGGGGGA has a switch fluorescence ratio of 1.06 ± 0.14.
TCGGGGGTGA showed a switch fluorescence ratio of 1 ± 0.021.
With TCGGGGGTTC the switch fluorescence ratio was 1.06 ± 0.027.
TCGGGGTAAG showed a switch fluorescence ratio of 1.03 ± 0.015.
TCGGGGTGAC showed a switch fluorescence ratio of 1.01 ± 0.018.
For TCGGGGTTTT, the switch fluorescence ratio was 1.02 ± 0.036.
With TCGGGTCAGT the switch fluorescence ratio was 1 ± 0.034.
TCGGGTGTGT gave a switch fluorescence ratio of 0.9889 ± 0.009.
For TCGGGTTCCG, the switch fluorescence ratio was 0.963 ± 0.019.
In the case of TCGGGTTCGG, the switch fluorescence ratio is reported as 0.992 ± 0.032.
TCGGGTTGAC showed a switch fluorescence ratio of 1.02 ± 0.025.
For TCGGGTTGG, the switch fluorescence ratio was 1.03 ± 0.02.
TCGGTAGGGC gave a switch fluorescence ratio of 1.025 ± 0.0089.
TCGGTAGTGG gave a switch fluorescence ratio of 1 ± 0.028.
Sequence TCGGTATATA has a switch fluorescence ratio of 1.03 ± 0.033.
In the case of TCGGTCGACG, the switch fluorescence ratio is reported as 0.962 ± 0.027.
With TCGGTCGATT the switch fluorescence ratio was 1.019 ± 0.0031.
For TCGGTGATAC, the switch fluorescence ratio was 4.52 ± 1.3.
Work on TCGGTTAATG yielded a switch fluorescence ratio of 1 ± 0.042.
TCGGTTGGGA was tested, and the switch fluorescence ratio was 0.986 ± 0.038.
In the case of TCGGTTTAGG, the switch fluorescence ratio is reported as 1.011 ± 0.0076.
TCGGTTTCAA showed a switch fluorescence ratio of 1.009 ± 0.0056.
In the case of TCGTAAACGG, the switch fluorescence ratio is reported as 1.01 ± 0.02.
TCGTACAGGG was tested, and the switch fluorescence ratio was 1.03 ± 0.047.
For TCGTACGCTA, the switch fluorescence ratio was 3.38 ± 0.084.
In the case of TCGTAGTGGC, the switch fluorescence ratio is reported as 1.11 ± 0.1.
